According to patent US20240199757A1 (UNIVERSITY OF CHICAGO, published 2024):

T1: N-terminal domain of human NT5E (human, UniProt P21589 27-335)
T1 construct: also called N-terminal hNT5E
T1 sequence: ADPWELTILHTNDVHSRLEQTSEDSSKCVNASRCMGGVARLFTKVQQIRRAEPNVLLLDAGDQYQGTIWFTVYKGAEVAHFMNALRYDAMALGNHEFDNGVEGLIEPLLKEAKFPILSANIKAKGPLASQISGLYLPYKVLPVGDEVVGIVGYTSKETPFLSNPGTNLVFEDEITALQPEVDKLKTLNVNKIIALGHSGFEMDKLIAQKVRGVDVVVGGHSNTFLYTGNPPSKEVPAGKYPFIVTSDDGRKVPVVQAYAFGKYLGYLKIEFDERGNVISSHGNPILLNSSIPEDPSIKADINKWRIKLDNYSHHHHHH

T2: Full-length human NT5E (recombinant, in-house) (human, UniProt P21589 27-549)
T2 construct: also called hNT5E; hNT5EWT
T2 sequence: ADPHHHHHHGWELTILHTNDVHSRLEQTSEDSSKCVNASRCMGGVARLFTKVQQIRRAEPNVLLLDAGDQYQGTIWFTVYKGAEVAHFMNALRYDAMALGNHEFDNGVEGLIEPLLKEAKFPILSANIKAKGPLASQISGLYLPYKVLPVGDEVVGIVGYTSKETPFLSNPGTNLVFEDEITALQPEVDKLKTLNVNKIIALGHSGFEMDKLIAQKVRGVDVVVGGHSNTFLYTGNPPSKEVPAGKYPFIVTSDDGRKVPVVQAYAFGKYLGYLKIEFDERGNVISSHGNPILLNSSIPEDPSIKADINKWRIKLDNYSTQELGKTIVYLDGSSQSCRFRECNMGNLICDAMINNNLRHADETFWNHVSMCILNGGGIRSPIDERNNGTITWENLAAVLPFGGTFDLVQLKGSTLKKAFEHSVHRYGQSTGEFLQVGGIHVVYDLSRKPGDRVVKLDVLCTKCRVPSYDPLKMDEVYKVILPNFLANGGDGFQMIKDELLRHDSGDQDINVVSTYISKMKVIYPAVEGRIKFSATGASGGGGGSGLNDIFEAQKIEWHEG

T3: Full-length cynomolgus NT5E (recombinant) (cynomolgus, UniProt P21589 27-549 (human entry))
T3 construct: also called cNT5E; cyno NT5E
T3 chain: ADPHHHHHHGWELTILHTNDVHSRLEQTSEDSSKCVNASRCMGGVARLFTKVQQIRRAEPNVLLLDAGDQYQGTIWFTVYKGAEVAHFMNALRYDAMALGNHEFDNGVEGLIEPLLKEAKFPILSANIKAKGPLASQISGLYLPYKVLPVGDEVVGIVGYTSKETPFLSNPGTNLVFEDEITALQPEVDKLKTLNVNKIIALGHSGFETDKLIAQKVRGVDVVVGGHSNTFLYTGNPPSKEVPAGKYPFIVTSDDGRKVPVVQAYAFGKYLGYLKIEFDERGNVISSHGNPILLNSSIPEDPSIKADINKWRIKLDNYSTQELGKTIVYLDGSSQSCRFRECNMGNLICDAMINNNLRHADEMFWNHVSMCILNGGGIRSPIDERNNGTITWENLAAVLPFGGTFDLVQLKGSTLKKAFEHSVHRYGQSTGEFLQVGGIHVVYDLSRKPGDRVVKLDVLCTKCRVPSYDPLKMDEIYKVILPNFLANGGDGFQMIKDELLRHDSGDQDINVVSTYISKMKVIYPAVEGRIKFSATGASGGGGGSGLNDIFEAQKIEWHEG

B1: 1789 Fab (Fab, V domains shown)
VH: EVQLVESGGGLVQPGGSLRLSCAASGFNVSYSSIHWVRQAPGKGLEWVASISSSSGYTYYADSVKGRFTISADTSKNTAYLQMNSLRAEDTAVYYCARNYWGWYPFYYFAFDYWGQGTLVTV
VL: DIQMTQSPSSLSASVGDRVTITCRASQSVSSAVAWYQQKPGKAPKLLIYSASSLYSGVPSRFSGSRSGTDFTLTISSLQPEDFATYYCQQGWDYPITFGQGTKVEIKR
B2: 1789 IgG (antibody, V domains shown)
VH: EVQLVESGGGLVQPGGSLRLSCAASGFNVSYSSIHWVRQAPGKGLEWVASISSSSGYTYYADSVKGRFTISADTSKNTAYLQMNSLRAEDTAVYYCARNYWGWYPFYYFAFDYWGQGTLVTVSS
VL: DIQMTQSPSSLSASVGDRVTITCRASQSVSSAVAWYQQKPGKAPKLLIYSASSLYSGVPSRFSGSRSGTDFTLTISSLQPEDFATYYCQQGWDYPITFGQGTKVEIKR

Tests used:
[1] = target: T1, N-terminal domain of human NT5E; experiment: SPR, His-captured N-terminal domain, single injection, ATP-free buffer
Method: All SPR experiments were performed at 25° C. using MASS-1 (Bruker) instrument. hNT5E, mNT5E and cNT5E were immobilized onto a nitrilotriacetic acid (NTA) sensor chip via His-tag. For kinetic experiments, after ligand immobilization, 2-fold serial dilutions of the Fabs were injected. After double-reference subtraction data were analyzed with BiaEvaluation (GE Healthcare) or Sierra Analyser (Bruker) software. The experiments were carried in buffers in presence and absence of 1 mM ATP to compare the kinetic parameters of the Fabs binding to closed and open form of NT5E.
In the domain binding experiments, full-length, N-terminal, and C-terminal hNT5E were immobilized as described above.

[2] = target: T2, Full-length human NT5E (recombinant, …); experiment: DSF thermal shift, 1.5-fold molar excess of Fab, no ATP (NT5E alone 49° C.)
Method: Thermal stability of samples was analyzed by differential scanning fluorimetry (DSF) using a real-time PCR instrument (Bio-Rad CFX384). Protein samples were mixed with 4× Sypro Orange at a final 4 μM concentration. For target/Fab complexes, 1.5-fold molar excess of Fab was used. All reactions were performed in triplicates in a 384-well plate. Thermal melting curves were monitored from 25° C. to 95° C. in steps of 0.5° C./30 s. Wavelengths of 490 and 575 nm were used for excitation and emission, respectively. The melting temperatures were inferred from the first derivative of the melting curves from the mean of triplicate runs using CFX software provided by the manufacturer.
TABLE 6 Summary of TM for hNT5EWT hNT5EDF, and hNT5E by differential scanning fluorimetry. […] Melting temperatures (TM) are for NT5E only and are represented by the mean of three replicates.

[3] = target: T2, Full-length human NT5E (recombinant, …); experiment: ELISA, biotinylated NT5E on neutravidin plate, no cofactors (apo)
Method: (§1) (B) Protein ELISA: Protein-based multipoint ELISA was performed to estimate the affinity of the generated Fabs and IgGs to NT5E. The binding of the Fabs and IgGs to the closed form of NT5E were determined in ELISA buffer (HBST) supplemented with 10 μM zinc chloride and 1 mM ATP while the binding of the same to open form of NT5E were determined in ELISA buffer (HBST) without any cofactors. A fixed concentration of the immobilized target (50 nM) on ELISA plate was incubated with 3-fold serial dilutions of the purified Fabs and IgGs starting from 3 μM and 1 μM respectively for 15 min. The plates were washed and were subsequently incubated with a secondary HRP-conjugated anti-protein L monoclonal antibody (#32420, ThermoFisher, 1:6000 dilution). As with phage ELISA, the plates were again washed, developed with TMB substrate and quenched with 1.0 M HCl, and absorbance (Abs450) was determined. To determine the affinity (EC50), the data were fitted with a non-linear, 4-parameter logistic curve in OriginLab.

[4] = target: T3, Full-length cynomolgus NT5E …; experiment: as above
Method: as §1

Row | Binder | binding result [1] | TM of NT5E in the presence of the Fab [2] [° C.] | EC50 [3] [nM] | EC50 [4] [nM]
1 | B1 | no binding (tested: 200 nM) | 48 | – | –
2 | B2 | – | – | 2.14 | 1.04
